Assay results as given in paper PMC6016246, “Cytokinin Signaling in Mycobacterium tuberculosis” (mBio, 2018).

T1: Rv0078 R48M (Mycobacterium tuberculosis, UniProt O53623 1-201, R48M)
T1 sequence: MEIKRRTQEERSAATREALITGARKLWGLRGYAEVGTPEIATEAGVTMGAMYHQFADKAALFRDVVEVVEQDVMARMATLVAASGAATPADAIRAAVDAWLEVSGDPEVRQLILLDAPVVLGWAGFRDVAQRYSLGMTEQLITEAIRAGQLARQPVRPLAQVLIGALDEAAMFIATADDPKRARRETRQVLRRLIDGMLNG

T2: Rv0078 (Mycobacterium tuberculosis, UniProt O53623 1-201)
T2 sequence: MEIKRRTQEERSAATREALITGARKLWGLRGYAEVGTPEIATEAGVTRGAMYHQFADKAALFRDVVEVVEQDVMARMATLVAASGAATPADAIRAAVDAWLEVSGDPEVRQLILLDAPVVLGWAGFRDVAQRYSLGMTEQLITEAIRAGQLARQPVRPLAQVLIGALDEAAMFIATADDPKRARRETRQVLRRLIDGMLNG

B1: +19/-14 (WT) (dsDNA)
DNA 1: GTACATTTACAAGCAGACTGCCGGTAACTTACCCCAGACCAGGGCAC
DNA 2: GTGCCCTGGTCTGG
DNA 3: GGTAAGTTACCGGCAGTCTGCTTGTAAATGTAC
B2: probe S1 (central dimer G-to-A) (dsDNA)
DNA 1: GTACATTTACAAGTAGACTACCGGTAACTTACC
DNA 2: GGTAAGTTACCGGTAGTCTACTTGTAAATGTAC

Experiments:
[1] = molecular target: T1, Rv0078 R48M; assay: EMSA; […], room temperature 30 min; […], buffer not stated; conditions: protein: recombinant; chain copies: 2; label: 5'-IRDye700 on S21
[2] = molecular target: T2, Rv0078; assay: as above; conditions: protein: recombinant; tags: C-terminal His6; chain copies: 4; label: IRDye700

Binder	binding result [1]	binding result [2]
B1	no binding	
B2		no binding
